In data set [1] the target is IKK1 (1–676) (human) (UniProt O15111). Put plainly: SEC.
For data set [2], the target named is purified human IKK1 used for single-particle cryo-EM (human) (UniProt O15111). Nature of the data set: cryo-EM structure.
Data set [3] has the same target. Nature of the data set: cryo-EM structure. The source holds these as a separate data set.
Data set [4] deals with the molecule itself. Nature of the data set: SEC.
The target of data set [5] is T1, human IKK1 (residues 10–667; EE) (human), O15111.
T1 chain: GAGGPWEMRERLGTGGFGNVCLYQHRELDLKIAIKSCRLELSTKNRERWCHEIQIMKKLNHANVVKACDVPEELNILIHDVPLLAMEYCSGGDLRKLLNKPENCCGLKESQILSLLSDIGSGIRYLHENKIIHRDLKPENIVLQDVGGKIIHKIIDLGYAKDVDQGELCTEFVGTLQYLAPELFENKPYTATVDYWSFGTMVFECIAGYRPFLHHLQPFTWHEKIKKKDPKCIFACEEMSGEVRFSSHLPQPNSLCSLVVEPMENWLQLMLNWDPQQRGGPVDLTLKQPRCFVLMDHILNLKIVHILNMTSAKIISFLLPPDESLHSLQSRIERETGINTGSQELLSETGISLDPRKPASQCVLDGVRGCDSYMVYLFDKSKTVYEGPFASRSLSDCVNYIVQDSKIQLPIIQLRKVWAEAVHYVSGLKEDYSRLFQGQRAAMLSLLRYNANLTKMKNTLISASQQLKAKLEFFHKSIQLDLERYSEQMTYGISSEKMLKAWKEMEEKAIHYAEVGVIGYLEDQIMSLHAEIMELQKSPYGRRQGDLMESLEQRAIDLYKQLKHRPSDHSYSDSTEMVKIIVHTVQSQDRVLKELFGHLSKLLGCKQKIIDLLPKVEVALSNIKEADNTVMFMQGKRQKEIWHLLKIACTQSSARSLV
Nature of the data set: crystal structure. The conditions noted are these: remark: other sources report otherwise.

For data set [6], the target named is T1, human IKK1 (residues 10–667; EE) …. Put plainly: crystal structure. The conditions noted are these: remark: other sources report otherwise.
Data set [7] addresses T2, HA-IKK1 WT overexpressed in 293T cells (human), O15111.
T2 chain: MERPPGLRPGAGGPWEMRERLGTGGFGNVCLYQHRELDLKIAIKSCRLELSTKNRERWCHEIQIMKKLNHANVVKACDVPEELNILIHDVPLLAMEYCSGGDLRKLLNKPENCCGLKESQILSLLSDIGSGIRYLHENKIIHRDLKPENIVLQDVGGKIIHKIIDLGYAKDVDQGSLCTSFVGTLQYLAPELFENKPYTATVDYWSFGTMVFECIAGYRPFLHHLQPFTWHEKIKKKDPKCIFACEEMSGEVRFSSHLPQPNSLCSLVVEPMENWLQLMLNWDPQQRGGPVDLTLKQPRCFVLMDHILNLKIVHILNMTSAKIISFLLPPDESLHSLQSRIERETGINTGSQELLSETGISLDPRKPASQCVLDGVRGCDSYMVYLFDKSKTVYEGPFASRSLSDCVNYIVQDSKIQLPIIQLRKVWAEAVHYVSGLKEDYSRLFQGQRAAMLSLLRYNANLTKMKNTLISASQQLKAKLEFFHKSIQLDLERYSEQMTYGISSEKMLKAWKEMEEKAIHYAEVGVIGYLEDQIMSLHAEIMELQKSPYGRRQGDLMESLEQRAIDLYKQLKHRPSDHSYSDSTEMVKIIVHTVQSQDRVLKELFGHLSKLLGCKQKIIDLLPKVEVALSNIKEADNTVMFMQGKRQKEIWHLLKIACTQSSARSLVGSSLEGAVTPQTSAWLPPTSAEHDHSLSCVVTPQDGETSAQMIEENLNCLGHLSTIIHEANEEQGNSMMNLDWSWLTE
Put plainly: SEC. The conditions noted are these: remark: other sources report otherwise.

Data set [8] concerns the molecule itself. Put plainly: SEC. This is another data set of the same source.

Results on 6 molecules are retold here after article PMC5508515 (Cell reports, 2016).

Like-named read-outs stand apart in the source and are kept apart here.

In data set [1], “IKK1 (1–676) (from UniProt O15111 1-676) (domain or fragment)” showed a stoichiometry N of 2.
Consider “purified human IKK1 used for single-particle cryo-EM (from UniProt O15111 10-660) (enzyme)”, for which, in data set [2], the percent of particles not conforming to dimers (hexamer) was found to be 2% and the stoichiometry N was 6. In data set [3], this molecule showed a stoichiometry N of 2.

B1: IKK2 (1–700) (domain or fragment, UniProt O14920 1-700, looked up)
chain: MSWSPSLTTQTCGAWEMKERLGTGGFGNVIRWHNQETGEQIAIKQCRQELSPRNRERWCLEIQIMRRLTHPNVVAARDVPEGMQNLAPNDLPLLAMEYCQGGDLRKYLNQFENCCGLREGAILTLLSDIASALRYLHENRIIHRDLKPENIVLQQGEQRLIHKIIDLGYAKELDQGSLCTSFVGTLQYLAPELLEQQKYTVTVDYWSFGTLAFECITGFRPFLPNWQPVQWHSKVRQKSEVDIVVSEDLNGTVKFSSSLPYPNNLNSVLAERLEKWLQLMLMWHPRQRGTDPTYGPNGCFKALDDILNLKLVHILNMVTGTIHTYPVTEDESLQSLKARIQQDTGIPEEDQELLQEAGLALIPDKPATQCISDGKLNEGHTLDMDLVFLFDNSKITYETQISPRPQPESVSCILQEPKRNLAFFQLRKVWGQVWHSIQTLKEDCNRLQQGQRAAMMNLLRNNSCLSKMKNSMASMSQQLKAKLDFFKTSIQIDLEKYSEQTEFGITSDKLLLAWREMEQAVELCGRENEVKLLVERMMALQTDIVDLQRSPMGRKQGGTLDDLEEQARELYRRLREKPRDQRTEGDSQEMVRLLLQAIQSFEKKVRVIYTQLSKTVVCKQKALELLPKVEEVVSLMNEDEKTVVRLQEKRQKELWNLLKIACSKVRGPVSGSPDSMNASRLSQPGQLMSQPSTASNSLPE
Regarding B1, the “stoichiometry N” value in data set [4] came out at 2.

B2: human IKK1 (residues 10–667; EE), O15111 10-667 (domain or fragment)
chain: GAGGPWEMRERLGTGGFGNVCLYQHRELDLKIAIKSCRLELSTKNRERWCHEIQIMKKLNHANVVKACDVPEELNILIHDVPLLAMEYCSGGDLRKLLNKPENCCGLKESQILSLLSDIGSGIRYLHENKIIHRDLKPENIVLQDVGGKIIHKIIDLGYAKDVDQGELCTEFVGTLQYLAPELFENKPYTATVDYWSFGTMVFECIAGYRPFLHHLQPFTWHEKIKKKDPKCIFACEEMSGEVRFSSHLPQPNSLCSLVVEPMENWLQLMLNWDPQQRGGPVDLTLKQPRCFVLMDHILNLKIVHILNMTSAKIISFLLPPDESLHSLQSRIERETGINTGSQELLSETGISLDPRKPASQCVLDGVRGCDSYMVYLFDKSKTVYEGPFASRSLSDCVNYIVQDSKIQLPIIQLRKVWAEAVHYVSGLKEDYSRLFQGQRAAMLSLLRYNANLTKMKNTLISASQQLKAKLEFFHKSIQLDLERYSEQMTYGISSEKMLKAWKEMEEKAIHYAEVGVIGYLEDQIMSLHAEIMELQKSPYGRRQGDLMESLEQRAIDLYKQLKHRPSDHSYSDSTEMVKIIVHTVQSQDRVLKELFGHLSKLLGCKQKIIDLLPKVEVALSNIKEADNTVMFMQGKRQKEIWHLLKIACTQSSARSLV
Turning to B2, the stoichiometry N in data set [5] was 2; in data set [6], 6.

B3: HA-IKK1 WT overexpressed in 293T cells, O15111 1-745 (enzyme)
chain: MERPPGLRPGAGGPWEMRERLGTGGFGNVCLYQHRELDLKIAIKSCRLELSTKNRERWCHEIQIMKKLNHANVVKACDVPEELNILIHDVPLLAMEYCSGGDLRKLLNKPENCCGLKESQILSLLSDIGSGIRYLHENKIIHRDLKPENIVLQDVGGKIIHKIIDLGYAKDVDQGSLCTSFVGTLQYLAPELFENKPYTATVDYWSFGTMVFECIAGYRPFLHHLQPFTWHEKIKKKDPKCIFACEEMSGEVRFSSHLPQPNSLCSLVVEPMENWLQLMLNWDPQQRGGPVDLTLKQPRCFVLMDHILNLKIVHILNMTSAKIISFLLPPDESLHSLQSRIERETGINTGSQELLSETGISLDPRKPASQCVLDGVRGCDSYMVYLFDKSKTVYEGPFASRSLSDCVNYIVQDSKIQLPIIQLRKVWAEAVHYVSGLKEDYSRLFQGQRAAMLSLLRYNANLTKMKNTLISASQQLKAKLEFFHKSIQLDLERYSEQMTYGISSEKMLKAWKEMEEKAIHYAEVGVIGYLEDQIMSLHAEIMELQKSPYGRRQGDLMESLEQRAIDLYKQLKHRPSDHSYSDSTEMVKIIVHTVQSQDRVLKELFGHLSKLLGCKQKIIDLLPKVEVALSNIKEADNTVMFMQGKRQKEIWHLLKIACTQSSARSLVGSSLEGAVTPQTSAWLPPTSAEHDHSLSCVVTPQDGETSAQMIEENLNCLGHLSTIIHEANEEQGNSMMNLDWSWLTE
For B3, the stoichiometry N in data set [7] was determined as 2.

B4: HA-IKK1 HY (H578A Y580A) overexpressed in 293T cells (enzyme, human, UniProt O15111 1-745, looked up)
chain: MERPPGLRPGAGGPWEMRERLGTGGFGNVCLYQHRELDLKIAIKSCRLELSTKNRERWCHEIQIMKKLNHANVVKACDVPEELNILIHDVPLLAMEYCSGGDLRKLLNKPENCCGLKESQILSLLSDIGSGIRYLHENKIIHRDLKPENIVLQDVGGKIIHKIIDLGYAKDVDQGSLCTSFVGTLQYLAPELFENKPYTATVDYWSFGTMVFECIAGYRPFLHHLQPFTWHEKIKKKDPKCIFACEEMSGEVRFSSHLPQPNSLCSLVVEPMENWLQLMLNWDPQQRGGPVDLTLKQPRCFVLMDHILNLKIVHILNMTSAKIISFLLPPDESLHSLQSRIERETGINTGSQELLSETGISLDPRKPASQCVLDGVRGCDSYMVYLFDKSKTVYEGPFASRSLSDCVNYIVQDSKIQLPIIQLRKVWAEAVHYVSGLKEDYSRLFQGQRAAMLSLLRYNANLTKMKNTLISASQQLKAKLEFFHKSIQLDLERYSEQMTYGISSEKMLKAWKEMEEKAIHYAEVGVIGYLEDQIMSLHAEIMELQKSPYGRRQGDLMESLEQRAIDLYKQLKHRPSDASASDSTEMVKIIVHTVQSQDRVLKELFGHLSKLLGCKQKIIDLLPKVEVALSNIKEADNTVMFMQGKRQKEIWHLLKIACTQSSARSLVGSSLEGAVTPQTSAWLPPTSAEHDHSLSCVVTPQDGETSAQMIEENLNCLGHLSTIIHEANEEQGNSMMNLDWSWLTE
For B4, in data set [8], the “stoichiometry N” value came out at 2.
